This is an account of results in the Immune Epitope Database (IEDB).

The target of experiment [1] is HLA-A*02:01. As to the kind of experiment: IEDB peptide-MHC binding, purified MHC/competitive/radioactivity; ≥ and ≤ were set here for values at or beyond the usual limits of such assays. The following applies: source organism: Vaccinia virus WR.
In experiment [2] the target is HLA-A*02:02. The description is as above.
Experiment [3] addresses HLA-A*02:03. Described as above.
The target of experiment [4] is HLA-A*02:06. The description is as above.
Experiment [5] concerns the target HLA-A*68:02. The description is as above.
Experiment [6] has as its target HLA-A*02:01. As to the kind of experiment: IEDB peptide-MHC binding, cellular MHC/competitive/fluorescence; ≥ and ≤ were set here for values at or beyond the usual limits of such assays.
The mark [7] stands for this setting: source organism: Vaccinia virus WR.
Setting [8] is: source organism: Hepacivirus hominis.
Where [9] appears, read: source organism: Influenza A virus.

AAAATCALV: the IC50 in experiment [1] worked out at 41 nM; in experiment [2] (setting [7]), 15 nM; in experiment [3] (setting [7]), 9.1 nM; in experiment [4] (setting [7]), 12 nM; in experiment [5] (setting [7]) it was 12 nM.
For the sequence AADLTQIFEV, the IC50 came out at 17 nM in experiment [1]; 1240 nM in experiment [2] (setting [7]); 404 nM in experiment [3] (setting [7]); 11 nM in experiment [4] (setting [7]); 4350 nM in experiment [5] (setting [7]).
As to FISGIQYLA, the IC50 in experiment [2] (setting [8]) stood at 8.6 nM; in experiment [3] (setting [8]), 832 nM; in experiment [4] (setting [8]), 1340 nM; in experiment [5] (setting [8]) it was 12 nM.
FLITGVFDI: the IC50 in experiment [2] (source organism: SARS-CoV1) is 0.69 nM; in experiment [3] (source organism: SARS-CoV1), 0.76 nM; in experiment [4] (source organism: SARS-CoV1), 1.5 nM; in experiment [5] (source organism: SARS-CoV1) it was 62 nM.
For the sequence FLLVTLAIL, the IC50 was determined as 0.64 nM in experiment [2] (source organism: SARS-CoV1), 0.97 nM in experiment [3] (source organism: SARS-CoV1), 0.48 nM in experiment [4] (source organism: SARS-CoV1) and 1900 nM in experiment [5] (source organism: SARS-CoV1).
For the sequence FLNRFTTTL, the IC50 in experiment [2] (source organism: SARS-CoV1) is 0.66 nM; in experiment [3] (source organism: SARS-CoV1), 1 nM; in experiment [4] (source organism: SARS-CoV1), 58 nM; in experiment [5] (source organism: SARS-CoV1), 286 nM.
As to FLTSLLILV, the IC50 in experiment [2] (source organism: SARS-CoV1) turned out to be 2.2 nM; in experiment [3] (source organism: SARS-CoV1), 12 nM; in experiment [4] (source organism: SARS-CoV1) it was 3.3 nM; in experiment [5] (source organism: SARS-CoV1) it was 260 nM.
Consider FNMLSTVLGV, for which the IC50 in experiment [2] (setting [9]) worked out at 16 nM; in experiment [3] (setting [9]), 11 nM; in experiment [4] (setting [9]) it was 31 nM; in experiment [5] (setting [9]) it was 860 nM.
For the sequence FTYASALWEI, the IC50 in experiment [2] (source organism: SARS-CoV1) is 1.6 nM; in experiment [3] (source organism: SARS-CoV1) it was 6 nM; in experiment [4] (source organism: SARS-CoV1), 2.5 nM; in experiment [5] (source organism: SARS-CoV1), 1.7 nM.
On to IIGHIGHHYI, for which the IC50 was found to be 400 nM in experiment [2] (setting [7]), 186 nM in experiment [3] (setting [7]), 1350 nM in experiment [4] (setting [7]) and 222 nM in experiment [5] (setting [7]).
As to KLRSSPPIPM, the IC50 in experiment [2] (setting [7]) came out at 58 nM; in experiment [3] (setting [7]), 134 nM; in experiment [4] (setting [7]), 2210 nM; in experiment [5] (setting [7]) it was 4280 nM.
As to KTIAVSVYGA, the IC50 in experiment [2] (setting [7]) worked out at 366 nM; in experiment [3] (setting [7]), 224 nM; in experiment [4] (setting [7]), 427 nM; in experiment [5] (setting [7]), 235 nM.
MLLRSAIGQV: the half-maximal inhibitory concentration (IC50) in experiment [2] (setting [9]) stood at 1390 nM; in experiment [3] (setting [9]), 7 nM; in experiment [4] (setting [9]), 242 nM; in experiment [5] (setting [9]), 1710 nM.
As to MLYQLLEAV, the IC50 in experiment [6] (setting [7]) worked out at 14900 nM; in experiment [1] it was 8.2 nM.
Turning to MTSTRTIILV, the IC50 was 1980 nM in experiment [2] (setting [7]), 920 nM in experiment [3] (setting [7]), 217 nM in experiment [4] (setting [7]) and 173 nM in experiment [5] (setting [7]).
Regarding NMLSTVLGV, the IC50 worked out at 10 nM in experiment [3] (setting [9]) and 71 nM in experiment [4] (setting [9]).
In the case of QMWKCLIRL, the IC50 in experiment [2] (setting [8]) was 175 nM; in experiment [3] (setting [8]), 317 nM; in experiment [4] (setting [8]), 218 nM; in experiment [5] (setting [8]) it was 3230 nM.
As for RIEDMFLTSV, the IC50 in experiment [2] (setting [7]) amounted to 548 nM; in experiment [3] (setting [7]), 71 nM; in experiment [4] (setting [7]), 168 nM; in experiment [5] (setting [7]) it was 1430 nM.
For RLWHYPCTV, the IC50 turned out to be 165 nM in experiment [2] (setting [8]), 17 nM in experiment [3] (setting [8]), 131 nM in experiment [4] (setting [8]) and 4310 nM in experiment [5] (setting [8]).
In the case of SLFIESSICL, the IC50 in experiment [2] (setting [7]) turned out to be 99 nM; in experiment [3] (setting [7]), 293 nM; in experiment [4] (setting [7]) it was 982 nM; in experiment [5] (setting [7]) it was 2160 nM.
Take SMHFYGWSL: the figures for the concentration for half-maximal inhibition (IC50) in experiment [1], in experiment [4] (setting [7]) and in experiment [5] (setting [7]) were 192 nM, 383 nM and 11 nM, respectively.
SMWALVISV: the IC50 in experiment [2] (source organism: SARS-CoV1) worked out at 6.1 nM; in experiment [3] (source organism: SARS-CoV1), 4.4 nM; in experiment [4] (source organism: SARS-CoV1) it was 0.79 nM; in experiment [5] (source organism: SARS-CoV1), 252 nM.
SVFAASKQQM had an IC50 in experiment [6] (setting [7]) not below 70000 nM.
On to SVFYRGAENI, for which, in experiment [6] (setting [7]), the IC50 is 20800 nM.
On to SVNKFKFGAA, for which the IC50 in experiment [6] (setting [7]) was not below 70000 nM.
Turning to SVVQALTSL, the IC50 in experiment [6] (source organism: Mammarenavirus machupoense) came out at 9240 nM.
SVVTLLCVL registered an IC50 in experiment [6] (setting [7]) of 14700 nM.
TAASPMLYQL registered an IC50 in experiment [6] (setting [7]) not below 70000 nM.
For TACNNTIII, the IC50 in experiment [6] (setting [7]) came out at 11300 nM.
On to TANVVFRYM, for which the IC50 in experiment [6] (setting [7]) is 19300 nM.
In turn, TASGGKVLI came in with an IC50 in experiment [6] (setting [7]) of 37200 nM.
Take TASGGKVLIT: the IC50 in experiment [6] (setting [7]) was not below 70000 nM.
For the sequence TASSDSLQT, the IC50 in experiment [6] (setting [7]) came out at 54900 nM.
Sequence TAVEHIPTM registered an IC50 in experiment [6] (setting [7]) of 15900 nM.
Same read-out and setting: with TAVNEEWLT the figure was 27000 nM; with TAVNEEWLTA, 25000 nM; with TIDGVSKKNI, not below 70000 nM.
In experiment [6] (setting [7]), TIENALVASL had an IC50 of 14400 nM.
On the same count and under the same terms, the same measure for TIGNQLYLT: 18300 nM.
